According to publication PMC9020777:
pKd: −log10 of the molar value.

Assays:
Assay in all cases: FRET or BRET
[1] = target: mCerulean3-BCL-W (mouse) (UniProt P70345)
[2] = target: mCerulean3-BCL-2 (human) (UniProt P10415)
[3] = target: mCerulean3-BCL-XL (human) (UniProt Q07817)
mCerulean3-BCL-XL (human), sequence (Q07817 whole entry): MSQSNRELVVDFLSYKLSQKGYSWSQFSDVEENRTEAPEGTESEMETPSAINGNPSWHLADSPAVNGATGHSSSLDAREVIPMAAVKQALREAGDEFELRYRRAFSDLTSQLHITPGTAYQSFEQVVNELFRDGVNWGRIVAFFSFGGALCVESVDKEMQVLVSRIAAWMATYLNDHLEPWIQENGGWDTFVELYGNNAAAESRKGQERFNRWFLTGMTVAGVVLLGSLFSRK

mCerulean3-BCL-2 (human), sequence (P10415 whole entry): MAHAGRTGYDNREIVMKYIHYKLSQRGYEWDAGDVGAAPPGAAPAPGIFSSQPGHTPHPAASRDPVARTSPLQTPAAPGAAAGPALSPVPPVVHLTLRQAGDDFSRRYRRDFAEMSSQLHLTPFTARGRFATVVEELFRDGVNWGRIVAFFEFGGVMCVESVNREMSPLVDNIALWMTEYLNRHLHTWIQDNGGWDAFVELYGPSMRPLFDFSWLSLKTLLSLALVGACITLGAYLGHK
mCerulean3-BCL-W (mouse), sequence (P70345 whole entry): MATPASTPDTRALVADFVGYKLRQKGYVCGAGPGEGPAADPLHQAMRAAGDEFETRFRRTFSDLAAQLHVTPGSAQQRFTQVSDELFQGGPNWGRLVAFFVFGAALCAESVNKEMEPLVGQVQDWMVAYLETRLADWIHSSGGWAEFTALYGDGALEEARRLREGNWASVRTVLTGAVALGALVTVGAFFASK

pKd [1]: 5.22
pKd [2]: 5.52
pKd [3]: 5.30
Substance: Venus-tBID (natural protein)
